From paper PMC12041529 come the findings set out here.

A short description of the data set: western blot, co-transfected HEK293T. Particulars: glycan lost; control: Flag-GPNMB (WT). A general note: Immunoblotting shows a protein as a band on a membrane.

B1: glycoprotein nonmetastatic melanoma protein B (GPNMB): GPNMB296Q (protein)
parent chain: MECLYYFLGFLLLAARLPLDAAKRFHDVLGNERPSAYMREHNQLNGWSSDENDWNEKLYPVWKRGDMRWKNSWKGGRVQAVLTSDSPALVGSNITFAVNLIFPRCQKEDANGNIVYEKNCRNEAGLSADPYVYNWTAWSEDSDGENGTGQSHHNVFPDGKPFPHHPGWRRWNFIYVFHTLGQYFQKLGRCSVRVSVNTANVTLGPQLMEVTVYRRHGRAYVPIAQVKDVYVVTDQIPVFVTMFQKNDRNSSDETFLKDLPIMFDVLIHDPSHFLNYSTINYKWSFGDNTGLFVSTNHTVNHTYVLNGTFSLNLTVKAAAPGPCPPPPPPPRPSKPTPSLATTLKSYDSNTPGPAGDNPLELSRIPDENCQINRYGHFQATITIVEGILEVNIIQMTDVLMPVPWPESSLIDFVVTCQGSIPTEVCTIISDPTCEITQNTVCSPVDVDEMCLLTVRRTFNGSGTYCVNLTLGDDTSLALTSTLISVPDRDPASPLRMANSALISVGCLAIFVTVISLLVYKKHKEYNPIENSPGNVVRSKGLSVFLNRAKAVFFPGNQEKDPLLKNQEFKGVS
With B1, the “other: SNAP29 protein level” value was “decreases”.
